# Measurements reported in US20030175703, “RNA aptamers and methods for identifying the same” (published 2003).
# Molecular target: coagulation factor Xa (FXa) (UniProt P00742;P00742 P00742:41-179,P00742:235-488)
# Assay: not given
# Chain of coagulation factor Xa (FXa) (P00742 41-179, chain 1 of 2): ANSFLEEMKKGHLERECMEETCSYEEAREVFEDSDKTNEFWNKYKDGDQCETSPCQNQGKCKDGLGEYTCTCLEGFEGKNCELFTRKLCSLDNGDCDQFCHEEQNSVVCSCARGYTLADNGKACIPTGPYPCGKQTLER
# Chain of coagulation factor Xa (FXa) (P00742 235-488, chain 2 of 2): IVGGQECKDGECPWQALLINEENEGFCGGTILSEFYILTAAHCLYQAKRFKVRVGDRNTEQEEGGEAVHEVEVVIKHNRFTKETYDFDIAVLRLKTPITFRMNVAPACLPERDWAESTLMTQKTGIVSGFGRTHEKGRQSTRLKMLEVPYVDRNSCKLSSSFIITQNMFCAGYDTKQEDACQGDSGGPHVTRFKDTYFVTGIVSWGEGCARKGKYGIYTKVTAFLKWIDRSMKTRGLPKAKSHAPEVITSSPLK
Binder,Kd [nM],binding result
E9-6 (ssRNA) RNA: GGGAGAGAGGAAGAGGGAUGGGCCAGAAGCUAAACACUCAUAACCACGCUGAACCCCCCAACCAUAACCCAGAGGUCGAU,95.1,
E9-2 (ssRNA) RNA: GGGAGAGAGGAAGAGGGAUGGGAUACCGAGCACGCAAAACACACAAUGCCCAAGCAGGACUCAUAACCCAGAGGUCGAU,58.6,
E9-10 (ssRNA) RNA: GGGAGAGAGGAAGAGGGAUGGGCCAGAACCAACUGCGGUGAACCCCCCAUACCGCGACACAUCAUAACCCAGAGGUCGAU,130,
D7-7 (ssRNA) RNA: GGGAGAGAGGAAGAGGGAUGGGAGAAUACGCCUAGCGAGAAGAUACUUGGCCCCCGUGCAACCAUAACCCAGAGGUCGAU,5.8,
E10-4 (ssRNA) RNA: GGGAGAGAGGAAGAGGGAUGGGUCUUAGAUAUAGAACUCCGAGAGGACUGACCGUACAGAACCAUAACCCAGAGGUCGAU,37.4,
D4-7 (ssRNA) RNA: GGGAGAGAGGAAGAGGGAUGGGAUAAUAGCCCCAGCGAGAUAAUACUUGGCCCCGCUACUAACAUAACCCAGAGGUCGAU,,binds
D7-2 (ssRNA) RNA: GGGAGAGAGGAAGAGGGAUGGGAGAAUAGCCCCAGCGAGAUAAUACUUGGCCCCGCUAAUACCAUAACCCAGAGGUCGAU,8.1,
F11-8 (ssRNA) RNA: GGGAGAGAGGAAGAGGGAUGGGAGAUUAGCCCCAGCGAGAUAAUACUUGGCCCCGCUACUACCAUAACCCAGAGGUCGAU,2.2,
D7-5 (ssRNA) RNA: GGGAGAGAGGAAGAGGGAUGGGAAACUAGCCUCAGCGAGAUAAUACUUGGCCCCGCUACUACCAUAACCCAGAGGUCGAU,26.1,
F11-7 (ssRNA) RNA: GGGAGAGAGGAAGAGGGAUGGGAAAAUAGCCCCAGCGAGAUAAUACUUGGCCCCGCUAUUACCAUAACCCAGAGGUCGAU,3.6,
D7-1 (ssRNA) RNA: GGGAGAGAGGAAGAGGGAUGGGAGAAUGGCCCCAGCGAGAUUAUACUUGGCCCCGCCAAUACCAUAACCCAGAGGUCGAU,4.7,
D7-9 (ssRNA) RNA: GGGAGAGAGGAAGAGGGAUGGGUAAAUAGCCCCAGCGAGAUUCUACUUGGCCCCGCUACUACCAUAACCCAGAGGUCGAU,2.63,
D6-2 (ssRNA) RNA: GGGAGAGAGGAAGAGGGAUGGGAAAAUAGCCCCAGCGAGAUAAUACUUGGCCCCGCUACAACCAUAACCCAGAGGUCGAU,4.6,
D6-7 (ssRNA) RNA: GGGAGAGAGGAAGAGGGAUGGGUGCAUAGCCCCAGCGAGAUAAUACUUGGCCCCGCUACAACCAUAACCCAGAGGUCGAU,13.2,
D4-3 (ssRNA) RNA: GGGAGAGAGGAAGAGGGAUGGGUAAAUAGCCCCAGCGAGAUAAUACUUGGCCCCGCAACUACCAUAACCCAGAGGUCGAU,65.5,
D4-5 (ssRNA) RNA: GGGAGAGAGGAAGAGGGAUGGGAGAAUAGCCCCAGCGAGAUAAUCCUUGGCCCCGCUACUGCCAUAACCCAGAGGUCGAU,21.7,
D7-6 (ssRNA) RNA: GGGAGAGAGGAAGAGGGAUGGGAAAAUAGCCCCAGCGAGAUAAUACUUGGCCCCGCUAGCACCAUAACCCAGAGGUCGAU,3.8,
D8-1 (ssRNA) RNA: GGGAGAGAGGAAGAGGGAUGGGAAAAUAGCCCCAGCGAGAUGAUACUUGGCCCCGCUAAUACCAUAACCCAGAGGUCGAU,4.8,
D7-4 (ssRNA) RNA: GGGAGAGAGGAAGAGGGAUGGGAGAAUAGCCCCAGCGAGAUCGUACUUGGCCCCGCUAGUACCAUAACCCAGAGGUCGAU,39.3,

Binder,Kd [nM],binding result
D6-10 (ssRNA) RNA: GGGAGAGAGGAAGAGGGAUGGGCAGAUAGCCACAGCGAGAUCAUACUUGGCCCCGCUACUACCAUAACCCAGAGGUCGAU,18.7,
E10-12 (ssRNA) RNA: GGGAGAGAGGAAGAGGGAUGGGAAAAUAGCCCCAGCGAGAUAAUACUUGGCCCCGCGAACACCAUAACCCAGAGGUCGAU,11.7,
D4-2 (ssRNA) RNA: GGGAGAGAGGAAGAGGGAUGGGAACUUAGCCUCAGCGAGAUAACGCUUGGCCCCGCUAAGACCAUAACCCAGAGGUCGAU,540,
D6-9 (ssRNA) RNA: GGGAGAGAGGAAGAGGGAUGGGAAAUUUGCCCCAGCGAGAUAAUACUUGGCCCCGCAACUACCAUAACCCAGAGGUCGAU,6.5,
D4-9 (ssRNA) RNA: GGGAGAGAGGAAGAGGGAUGGGUAAGUUGCCCCAGCGAGAUAGUACUUGGCCCCGCUACUAACAUAACCCAGAGGUCGAU,> 240,
D6-3 (ssRNA) RNA: GGGAGAGAGGAAGAGGGAUGGGAAAAUAGCCCCAGCGAGAUAAUACUUGGCCCCGCUGUUACCAUAACCCAGAGGUCGAU,5.9,
E10-8 (ssRNA) RNA: GGGAGAGAGGAAGAGGGAUGGGCCAAAAGCGGACUGAAGACGUGUUUCCCCCAUCUCCGUGACAUAACCCAGAGGUCGAU,28.4,
E9-8 (ssRNA) RNA: GGGAGAGAGGAAGAGGGAUGGGCCAGAAGGAACUAAACACCUGAACCCCCCAUCGCGAGAGACAUAACCCAGAGGUCGAU,29.8,
E10-6 (ssRNA) RNA: GGGAGAGAGGAAGAGGGAUGGGGCCGUCGCCAGGAAUCAAACUGCUACUCCAUCCCGGGCACAUAACCCAGAGGUCGAU,85.7,
GAGAGCCCCAGCGAGAUAAUACUUGGCCCCGCUCUU (ssRNA) [11.F7t],~1.5,
E9-4 (ssRNA) RNA: GGGAGAGAGGAAGAGGGAUGGGAGCCCGAGAAAAUAACGCGUUCCACCAUACUACUAAGCCAUAACCCAGAGGUCGAU,65,
E9-9 (ssRNA) RNA: GGGAGAGAGGAAGAGGGAUGGGCCAGAACACCAGUGAACCCCCCAGCCCCUUCUCACCAGAUCAUAACCCAGAGGUCGAU,52.8,
E9-5 (ssRNA) RNA: GGGAGAGAGGAAGAGGGAUGGGCCAGAAGCGACACUAACGCUGAACCCCCCAGUCCCUUCACGUGCAUAACCCAGAGGUCGAU,53.5,
E10-11 (ssRNA) RNA: GGGAGAGAGGAAGAGGGAUGGGCCAGAAGCGCUCACUACAACGUUGAACCCCCCGUCCACACCAUAACCCAGAGGUCGAU,27.1,
D6-4 (ssRNA) RNA: GGGAGAGAGGAAGAGGGAUGGGAAAUUUGCCCUAGCGAGAUUAUACUUGGCCCCGCGAAAAACCAUAACCCAGAGGUCGAU,8.5,
E9-3 (ssRNA) RNA: GGGAGAGAGGAAGAGGGAUGGGCCAAAAGCGCAUACACCUGCGUGUUUCCCCCGCCAACAGUCAUAACCCAGAGGUCGAU,46.5,
F11-6 (ssRNA) RNA: GGGAGAGAGGAAGAGGGAUGGGCCAGCAACGUCACACGAACGGAAUACCCCCCAUUGAAAACCAUAACCCAGAGGUCGAU,33.6,
F11-10 (ssRNA) RNA: GGGAGAGAGGAAGAGGGAUGGGCUCGGCAGAAGACACGCAUUCACCUGGUGCCACCUCGUAACAUAACCCAGAGGUCGAU,84.4,

# Molecular target: coagulation factor IXa (FIXa) (UniProt P00740;P00740 P00740:47-191,P00740:227-461)
# Assay: filter; double-filter nitrocellulose
# Chain of coagulation factor IXa (FIXa) (P00740 47-191, chain 1 of 2): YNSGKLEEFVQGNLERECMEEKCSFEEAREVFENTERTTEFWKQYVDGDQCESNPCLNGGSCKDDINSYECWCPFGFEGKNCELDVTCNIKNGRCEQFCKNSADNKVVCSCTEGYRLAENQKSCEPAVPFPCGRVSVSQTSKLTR
# Chain of coagulation factor IXa (FIXa) (P00740 227-461, chain 2 of 2): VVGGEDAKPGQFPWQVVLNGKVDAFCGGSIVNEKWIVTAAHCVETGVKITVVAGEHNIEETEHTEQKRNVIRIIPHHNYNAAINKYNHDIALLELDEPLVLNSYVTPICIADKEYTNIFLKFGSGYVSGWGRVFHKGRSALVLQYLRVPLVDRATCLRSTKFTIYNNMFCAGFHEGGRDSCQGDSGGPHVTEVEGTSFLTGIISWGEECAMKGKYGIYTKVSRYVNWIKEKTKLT
row,Binder,Kd [nM]
1,"9.25 (ssRNA, 2'-F pyrimidines) RNA: GGGAGAGAGGAAGAGGGAUGGGGACCAUAACUCUAACGGGUGAAUCCCGCAUCUCGACAAUACAUAACCCAGAGGUCGAUAGUACUGGAUCCCC",0.49
2,"9.19 (ssRNA, 2'-F pyrimidines) RNA: GGGAGAGAGGAAGAGGGAUGGGACCAUAACGACUACUCGUGAAUCCCACCAUCAGCGCACAACAUAACCCAGAGGUCGAUAGUACUGGAUCCCCCC",0.707
3,"9.20 (ssRNA, 2'-F pyrimidines) RNA: GGGAGAGAGGAAGAGGGAUGGGGACUAUACCGGCAAUCGUGCAUCCCCUGGACCUAACAAUACAUAACCCAGAGGUCGAUAGUACUGGAUCCCCCC",0.49
4,"9.26 (ssRNA, 2'-F pyrimidines) RNA: GGGAGAGAGGAAGAGGGAUGGGUGAUAACCACUCUGGUGAACCCCUCCCGACUUGCUCGCACAUAACCCAGAGGUCGAUAGUACUGGAUCCCCCC",0.49
5,"9.27 (ssRNA, 2'-F pyrimidines) RNA: GGGAGAGAGGAAGAGGGAUGGGUAAUAACUGUAUGGUGAACCCACCCAAACUCCCAUGGCUACAUAACCCAGAGGUCGAUAGUACUGGAUCCCCCC",1.64
